# Test results as given in patent US20160017037A1 (GlaxoSmithKline, published 2016).
# Numbering of substitutions follows the chain as printed.
# T1: Recombinant cynomolgus macaque LAG-3 ECD-His6 (cynomolgus macaque, UniProt P18627 24-433 (human entry))
# T1 construct: In-house generated; also called cyno LAG-3
# T1 chain: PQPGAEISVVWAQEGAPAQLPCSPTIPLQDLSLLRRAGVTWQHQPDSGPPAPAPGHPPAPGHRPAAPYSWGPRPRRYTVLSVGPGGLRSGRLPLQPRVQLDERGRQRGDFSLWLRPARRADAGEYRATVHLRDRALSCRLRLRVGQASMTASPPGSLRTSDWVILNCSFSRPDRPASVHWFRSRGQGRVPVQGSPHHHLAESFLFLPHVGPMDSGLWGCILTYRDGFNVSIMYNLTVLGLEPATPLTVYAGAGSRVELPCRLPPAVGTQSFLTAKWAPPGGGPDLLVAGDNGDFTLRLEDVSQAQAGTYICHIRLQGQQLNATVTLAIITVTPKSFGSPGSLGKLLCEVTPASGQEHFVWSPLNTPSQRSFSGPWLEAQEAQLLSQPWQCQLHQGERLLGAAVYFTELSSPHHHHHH
# T2: Recombinant baboon LAG-3 ECD-His6 (baboon, UniProt P18627 24-433 (human entry))
# T2 construct: In-house generated
# T2 chain: T1 chain with R188Q, G193E, A243T, A288V, D293N, H357R
# T3: Recombinant human LAG-3 ECD-His6 (human, UniProt P18627 23-433)
# T3 construct: also called LAG-3-His; recombinant human LAG-3-His
# T3 sequence: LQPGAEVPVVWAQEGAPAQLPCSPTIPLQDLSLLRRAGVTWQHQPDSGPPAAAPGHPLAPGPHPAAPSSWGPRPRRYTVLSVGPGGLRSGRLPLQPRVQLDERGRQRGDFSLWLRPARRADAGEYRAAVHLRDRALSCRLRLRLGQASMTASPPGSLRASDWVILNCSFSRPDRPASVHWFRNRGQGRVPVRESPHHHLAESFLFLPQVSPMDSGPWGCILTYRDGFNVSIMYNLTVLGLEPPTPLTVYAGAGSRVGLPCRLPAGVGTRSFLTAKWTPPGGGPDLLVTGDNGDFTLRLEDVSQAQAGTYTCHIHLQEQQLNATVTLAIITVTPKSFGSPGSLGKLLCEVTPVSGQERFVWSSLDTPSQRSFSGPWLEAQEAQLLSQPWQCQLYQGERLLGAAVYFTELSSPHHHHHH
# B1: H5L7BW (antibody, human IgG1, kappa)
# heavy: not shown
# light: DIQMTQSPSSLSASVGDRVTITCKSSQSLLNPSNQKNYLAWYQQKPGKAPKLLVYFASTRDSGVPSRFSGSGSGTDFTLTISSLQPEDFATYYCLQHFGTPPTFGQGTKLEIKRTVAAPSVFIFPPSDEQLKSGTASVVCLLNNFYPREAKVQWKVDNALQSGNSQESVTEQDSKDSTYSLSSTLTLSKADYEKHKVYACEVTHQGLSSPVTKSFNRGEC
# modifications: afucosylated: no fucose on the core carbohydrate structure attached to Asn297
# notes: Same plasmids as H5L7, expressed in the BioWa POTELLIGENT (FUT8 knock-out CHO) cell line; also called afucosylated antibody H5L7BW; afucosylated H5L7
# B2: IMP731 (antibody, human IgG1, kappa)
# heavy: not shown
# light: DIVMTQSPSSLAVSVGQKVTMSCKSSQSLLNGSNQKNYLAWYQQKPGQSPKLLVYFASTRDSGVPDRFIGSGSGTDFTLTISSVQAEDLADYFCLQHFGTPPTFGGGTKLEIKRTVAAPSVFIFPPSDEQLKSGTASVVCLLNNFYPREAKVQWKVDNALQSGNSQESVTEQDSKDSTYSLSSTLTLSKADYEKHKVYACEVTHQGLSSPVTKSFNRGEC
# notes: Chimeric (murine variable domains, human IgG1/kappa constant regions); also called A9H12; chimeric antibody IMP731
# B3: H5L7 (antibody, human IgG1, kappa)
# heavy: not shown
# light: B1 light
# notes: Humanised IgG1/kappa of A9H12 (IMP731); also called fucosylated H5L7; non-ADCC enhanced variant H5L7
# Molecular target: T1, Recombinant cynomolgus macaque LAG-3 …
# Assay: SPR Biacore T100 (orthologues at 37 C, human at 25 C)
# Description: (§1) Wild type fucosylated and afucosylated antibodies were compared for their ability to bind to recombinant human LAG-3 ECD with a C-terminal His6 (SEQ ID NO:51) using the Biacore™ T100 (GE Healthcare™). Protein A was immobilised on a CM5 chip by primary amine coupling. This surface was then used to capture the humanised antibodies. Recombinant human LAG-3 ECD-His6 was then passed over the captured antibodies at 32, 8, 2, 0.5 and 0.125 nM and regeneration was carried out using 50 mM NaOH. The binding curves were double referenced with buffer injection (i.e. 0 nM) and the data was fitted to the T100 analysis software using the 1:1 model. The run was carried out at 25° C., using HBS-EP as the running buffer.
# (§2) Protein A was immobilised on a CM5 chip by primary amine coupling. This surface was then used to capture the humanised antibodies. In-house generated recombinant cynomolgus macaque and baboon LAG-3 ECD-His6 were then passed over the captured antibodies and regeneration was carried out using 50 mM NaOH. LAG-3 ECD-His6 was passed over at 16, 4, 1, 0.25 and 0.0625 nM. The binding curves were double referenced with buffer injection (i.e. 0 nM) and the data was fitted to the T100 analysis software using the 1:1 model. The run was carried out at 37° C. using HBS-EP as the running buffer.
row,Binder,fold improvement in affinity against human recombinant LAG-3 ECD-His6 [fold]
1,B1,10
2,B2,~100
3,B3,10

# Molecular target: T2, Recombinant baboon LAG-3 ECD-His6
# Assay: as above
# Description: as §1, §2
row,Binder,fold improvement in affinity against human recombinant LAG-3 ECD-His6 [fold]
1,B1,10
2,B2,~100
3,B3,10

# Molecular target: T3, Recombinant human LAG-3 ECD-His6
# Assay: SPR Biacore T100, antibody captured on Protein A, LAG-3 ECD-His6 analyte, 1:1 model, 25 C, geometric mean of 3 runs
# Description: as §1
# In order to investigate the statistical significance of this kinetic data, this experiment was repeated 3 times with the same batch of the four antibodies and the chimeric control. KD, ka and kd parameters were each log (base 10) transformed prior to separate statistical analyses. For each parameter, a mixed model analysis of variance CAnova′) was performed on transformed data, including terms for Run (random block effect) and Antibody.
row,Binder,koff [s⁻¹]
1,B1,0.00441
2,B2,0.0275
3,B3,0.00395

# Molecular target: T1, Recombinant cynomolgus macaque LAG-3 …
# Assay: SPR Biacore T100, antibody captured on Protein A, LAG-3 ECD-His6 analyte 0.0625-16 nM, 1:1 model, 37 C
# Description: (§3) The binding cross reactivity of anti-LAG-3 humanised antibodies for both cynomolgus macaque (cyno) and baboon recombinant LAG-3 ECD-His6 (SEQ ID NOs 52 and 53, respectively) was assessed using the Biacore™ T100 (GE Healthcare).
# as §2
row,Binder,Kd [nM]
1,B1,0.021
2,B2,0.021
3,B3,0.017

# Molecular target: T2, Recombinant baboon LAG-3 ECD-His6
# Assay: as above
# Description: as §3, §2
row,Binder,Kd [nM]
1,B1,0.024
2,B2,0.019
3,B3,0.022
